T1: Human TNFR2 expressed on cells (CHO-hTNFR2 cells) (human, UniProt P20333 23-461)
T1 construct: also called CHO cells overexpressing human TNFR2; human TNFR2 reporter cells (HEK293)
T1 sequence: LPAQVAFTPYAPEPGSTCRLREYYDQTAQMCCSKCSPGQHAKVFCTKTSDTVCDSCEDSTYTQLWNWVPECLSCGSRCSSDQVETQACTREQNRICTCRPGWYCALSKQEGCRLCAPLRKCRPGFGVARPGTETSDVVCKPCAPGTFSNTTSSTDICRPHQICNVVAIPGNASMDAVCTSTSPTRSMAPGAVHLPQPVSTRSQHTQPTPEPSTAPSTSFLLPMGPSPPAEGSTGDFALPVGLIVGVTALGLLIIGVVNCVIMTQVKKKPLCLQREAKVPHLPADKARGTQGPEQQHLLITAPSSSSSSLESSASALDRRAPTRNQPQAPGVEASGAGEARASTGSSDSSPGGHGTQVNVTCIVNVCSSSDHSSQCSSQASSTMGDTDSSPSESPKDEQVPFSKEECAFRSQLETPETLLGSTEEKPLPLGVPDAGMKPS

T2: recombinant human TNFR2-hFc protein (human, UniProt P20333 23-257)
T2 construct: also called hTNFR2-Fc; human TNFR2-Fc; not shown: human Fc
T2 sequence: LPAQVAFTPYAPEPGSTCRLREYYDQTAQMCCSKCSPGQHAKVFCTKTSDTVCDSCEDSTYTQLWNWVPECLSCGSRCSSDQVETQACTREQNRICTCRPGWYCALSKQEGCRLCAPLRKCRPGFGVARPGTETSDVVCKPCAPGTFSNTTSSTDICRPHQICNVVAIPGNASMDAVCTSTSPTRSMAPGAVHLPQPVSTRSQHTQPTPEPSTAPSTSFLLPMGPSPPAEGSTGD


Key:
[1] = target: T1, Human TNFR2 expressed on cells …; test: flow cytometry, titration of soluble scFv (up to 300 nM) on CHO-hTNFR2 cells; one site binding non-linear fit
[2] = target: T1, Human TNFR2 expressed on cells …; test: flow cytometry; soluble scFv inhibiting TNF (1 nM) binding to CHO-hTNFR2 cells (FIG. 3)
[3] = target: T2, recombinant human TNFR2-hFc protein; test: flow cytometry; hTNFR2-Fc binding to scFv displayed on yeast; one site binding fit (FIG. 4)
[4] = target: T1, Human TNFR2 expressed on cells …; test: flow cytometry; soluble scFv inhibiting TNF (1 nM) binding to CHO-hTNFR2 cells (FIGS. 5A-5B)
[5] = target: T2, recombinant human TNFR2-hFc protein; test: flow cytometry; TNFR2-Fc binding to scFv displayed on yeast (FIGS. 6A-6C)
[6] = target: T2, recombinant human TNFR2-hFc protein; test: flow cytometry; hTNFR2-Fc binding to scFv displayed on yeast; one site binding fit (FIG. 6A)
[7] = target: T2, recombinant human TNFR2-hFc protein; test: flow cytometry; hTNFR2-Fc binding to scFv displayed on yeast; one site binding fit (FIG. 6B)
[8] = target: T2, recombinant human TNFR2-hFc protein; test: flow cytometry; hTNFR2-Fc binding to scFv displayed on yeast; one site binding fit (FIG. 6C)

Kd [1] [nM] | IC50 [2] [nM] | fold higher affinity (vs parental scFv) [5] [fold] | Binder | further results
42 | 69.7 |  | UC6 (9-1A6) scFv (scFv, Soluble scFv) scFv: QVQLVQSGAEVKKPGSSVKVSCKASGDSFNNFGISWVRQAPGQGLEWMGGIVPVLGIATYAQKFQGRVTITADESTSTAYMELSSLRSEDTAVYYCARGSAWYDGSFQYWGQGTLVTVSSASSGGSTSGSGKPGSGEGSSGSAREIVLTQSPGTLSLSPGERATLSCRASQSVSSTFLAWYQQKPGQAPRLLIYDASTRATGIPDRFSGSDSGTDFTLTISRLEPEDFAVYYCQQYDSWPFTFGQGTKVEIKR | 
48.9 | 25.6 |  | UC7 (9-1B5) scFv (scFv, Soluble scFv) scFv: QVQLVQSGAEVKKPGSSVKVSCKASGDTFSSYGVSWVRQAPGQGLEWMGRIVPVFGIANYAQKFQGRVTITADESTSTAYMELSSLRSEDTAVYYCARQSPYVTYSSYYFDYWGQGTLVTVSSASSGGSTSGSGKPGSGEGSSGSAREIVLTQSPGTLSLSPGERATLSCRASQSVSNNFLAWYQQKPGQAPRLLIYDASTRATGIPDRFSGSGSGTDFTLTISRLEPEDFAVYYCQQYGSWPITFGQGTKVEIKR | 
8.17 |  |  | UC1 (S4-2 1B5) scFv (scFv) scFv: QVQLLESGGGLVQPGGSLRLSCAASGFSFTSYAMTWVRQAPGKGLEWVSGISGGGAATFYADSVKGRFTISRDNSKNTLYLQMNSLRAEDTAVYYCARQSQYVGGFDYWGQGTLVTVSSASSGGSTSGSGKPGSGEGSSGSARQSVLTQPPSVSGAPGQRVTISCTGSSSNIGAGYGVHWYQQLPGTAPKLLIYGNTNRPSGVPDRFSGFKSGTSASLAITGLQAEDEADYYCQSYDSSLSGWVFGGGTKLTVLG | Kd [3]: 18.1 nM; IC50 [4]: 4.44 nM
 |  | 10 | UC1.3 (S4-2 1B5-1B3) scFv (scFv) scFv: QVQLLESGGGLVQPGGSLRLSCAASGFSFTSYAMTWVRQAPGKGLEWVSGISGDGAATFYADSVKGRFTISRDNSKNTLYLQMNSLRAEDTAVYYCARQSQYVGGFDYWGQGTLVTVSSASSGGSTSGSGKPDSGEGSSGSARQSVLTQPPSVSGAPGQRVTISCTGSSSNFGAGYGVHWYQQLPGTAPKLLIHGNTNRPSGVPDRFSGFKSGTSASLAITGLQAEDEADYYCQSYDSSLSGWVFGGGTKLTVLG | Kd [6]: 0.64 nM
 |  | 10 | UC1.2 (S4-2 1B5-1A5) scFv (scFv) scFv: QVQLLESGGGLVQPGGSLRLSCAASGFSFTSYAMTWVRQAPGKGLEWVSGISGGGAATFYADSVKGRFTISRDNSKNTLYLQMNSLRAEDTAVYYCARQSQYVGGFDYWGQGTLVTVSSASSGGSTSGSGKPDSGEGSSGSARQSVLTQPPSVSGAPGQRVTISCTGSSSNFGAGYGVHWYQQLPGTAPKLLIHGNTNRPSGVPDRFSGFKSGTSASLAITGLQAEDEADYYCQSYDSSLSGWVFGGGTKLTVLG | Kd [6]: 0.57 nM
19.3 | 110 |  | UC3 (S4-2 1E5) scFv (scFv, Soluble scFv) scFv: QVQLLESGGGLVQPGGSLRLSCAASGFSFSSYAMSWVRQAPGKGLEWVSGISAGGGETFYADSVKGRFTISRDNSKNTLYLQMNSLRAEDTAVYYCARVHPISYGFDIWGQGTLVTVSSASSGGSTSGSGKPGSGEGSSGSARDIQMTQSPSSLSASVGDRVTITCQASQDIKKYLNWYQQKPGKAPKLLIYDASTLQTGVPSRFSGSGSGTDFTFTISSLQPEDIATYYCQQSDNTPVTFGQGTKVEIKR | 
13.4 | 21.5 |  | UC 8 (9-2A4) scFv (scFv, Soluble scFv) scFv: QVQLVQSGAEVKKPGSSVKVSCKASGDTFSNYGFSWVRQAPGQGLEWMGGIVPVFGIATYAQKFQGRVTITADESTSTAYMELSSLRSEDTAVYYCARDYSYYPDDPRYFEYWGQGTLVTVSSASSGGSTSGSGKPGSGEGSSGSAREIVLTQSPGTLSLSPGERATLSCRASQSVSSTFLAWYQQKPGQAPRLLIYAASSRATGIPDRFSGSGSGTDFTLTISRLEPEDFAVYYCQQYGSWPLTFGQGTKVEIKR | 
14.5 | 746 |  | UC5 (8-2A10) scFv (scFv, Soluble scFv) scFv: QVQLLESGGGLVQPGGSLRLSCAASGFTFNTYAMTWVRQAPGKGLEWVSAISDSGGDTFYADSVKGRFTISRDNSKNTLYLQMNSLRAEDTAVYYCARDGTYAARFDYWGQGTLVTVSSASSGGSTSGSGKPGSGEGSSGSARDIQMTQSPSSLSASVGDRVTITCQASQDISNYLNWYQQKPGKAPKLLIYDASTLETGVPSRFSGSGSGTDFTFTISSLQPEDIATYYCQQSDSFPITFGQGTKVEIKR | 
14.4 |  |  | UC2 (S4-2 1D10) scFv (scFv) scFv: QVQLLESGGGLVQPGGSLRLSCAASGFTFSTYAMSWVRQAPGKGLEWVSIISDGGDATFYADSVKGRFTISRDNSKNTLYLQMNSLRAEDTAVYYCARDGTSAAAFDSWGQGTLVTVSSASSGGSTSGSGKPGSGEGSSGSARDIQMTQSPSSLSASVGDRVTITCQASQDITNFLNWYQQKPGKAPKLLIYDASTLQTGVPSRFSGSGSGTDFTFTISSLQPEDIATYYCQQSDSYPITFGQGTKVEIKR | Kd [3]: 42.8 nM; IC50 [4]: 39.6 nM
 |  | 10 | UC2.3.9 (S4-2 1D10-1G9-1F12) scFv (scFv) scFv: QVQLLESGGGLVQPGGSLRLSCAASGFTFSTYAMSWIRQAPGKGLEWVSIISDGGDATVYADSVKGRFTISRDNNRNTLYLQMNSLRAEDTAVYYCARDGTSAAAFDSWGQGTLVTVSSASSGGSTSGSGKPGSGEGSSGSARDIQMTQSPSSLSASVGDRVTITCHASQDITNFLNWYQQKPGKAPKLLIYDASTLQTGVPSRFSGSGSGTDFTFTISSLQPEDIATYYCQQSDSYPITFGQGTKVEIKR | Kd [7]: 1.79 nM
 |  | 10 | UC2.3.12 (S4-2 1D10-1G9-1H1) scFv (scFv) scFv: QVQLLESGGGLVQPGDSLRLSCAASGFTFSTYAMSWIRQAPGKGLEWVSIISDGGDATVYADSVKGRFTISRDNNRNTLYLQMNSLRAEDTAVYYCARDGTSAAAFDSWGQGTLVTVSSASSGGSTSGSGKPGSGEGSSGSARDIQMTQSPSSLSASVGDRVTITCQASQDITNFLNWYQQKPGKAPKLLIYDASTLQTGVPSRFSGSGSGTNFTFTISSLQPEDIATYYCQQSDSYPITFGQGTKVEIKR | Kd [7]: 1.98 nM
 |  | 10 | UC2.3.11 (S4-2 1D10-1G9-1G3) scFv (scFv) scFv: QVQLLESGGGLVQPGGSLRLSCAVSGFTFSTYAMSWIRQAPGKGLEWVSIISDGGDATVYADSVKGRFTISRDNSKNTLYLQMNSLRAEDTAVYYWARDGTSAAAFDSWGQGTLVTVSSANSGGSTSGSGKPGSGEGSSGSARDIQMTQSPSSLSASVGDRVTITCQASQDITNFLNWYQQKPGKAPKLLIYDASTLQTGVPSRFSGSGSGTDFTFTISSLQPEDIATYYCQQSDSYPITFGQGTKVEIKR | Kd [7]: 1.52 nM
 |  | 10 | UC2.3.14 (S4-2 1D10-1G9-1H11) scFv (scFv) scFv: QVQLLESGGGLVQPGGSLRLSYAASGFTFSTYAMSWIRQAPRKGLEWVSIISDGGDATVYADSVKGRFTISRDNSKNTLYLQMNSLRAEDTAVYYCARDRTSAAAFDSWGQGTLVTVSSASSGGSTSGSGKPGSGEGSSGSARDIQMTQSPSSLSASVGDRVTITCQASQDITNFLNWYQQKPGKAPKLLIYDASTLQTGVPSRFSGSGSGTDFTFTISSLQPEDIATYYCQQSDSYPITFGQGTKVEIKR | Kd [8]: 0.65 nM
 |  | 10 | UC2.3.13 (S4-2 1D10-1G9-1G11) scFv (scFv) scFv: QVQLLESVGGLVQPGGSLRLSCAVSGFTFSTYAMSWIRQAPGKGLEWVSIISDGGDVTVYADSVKGRFTISRDNSKNTLYLQMNSLRAEDTAVYYCARDRTSAAAFDSWGQGTLVSDSSASSGGSTSGSGKPGSGEGSSGSSRDIQMTQSPSSLSASVGDRVTITCQASQDITNFLNWYQQKPGKAPKLLIYDASTLQTGVPSRFSGSGSGTDFNFTISSLQPEDIATYYCQQSDSYPITFGQGTKVEIKR | Kd [8]: 0.87 nM
 |  | 10 | UC2.3.10 (S4-2 1D10-1G9-1G2) scFv (scFv) scFv: QVQLLESGGGLVQPGGSLRLSYAASGFTFSTYAMSWIRQAPGKGLEWVSIISDGGDATVYADSVKGRFTISRDNSKNTLYLQMNSLRAEDTAVYYCARDRTSAAAFDSWGQGTLVTVSSASSGGSTSGSGKPGSGEGSSGSARDIQMTQSPSSLSASVGDRVTITCQASQDITNFLNWYQQKPGKAPKLLIYDASTLQTGVPSRFSGSGSGTDFTFTISSLQPEDIATYYCQQSDSYPITFGQGTKVEIKR | Kd [7]: 0.63 nM

— US20220281990A1 (MERRIMACK PHARMACEUTICALS, published 2022)
